From patent US20210380703A1
Where a chain is given by its changes, count along the chain named.

B1: 375_A04 (antibody, V domains shown)
VH: EVQLLESGGGLVQPGGSLRLSCAASGFTFDSYGMNWVRQAPGKGLEWVAGINYNGGYKSYADSVKGRFTISRDNSKNTLYLQMNSLRAEDTAVYYCARAANWHDTALDYWGQGTLVTVSS
VL: DIQMTQSPSSLSASVGDRVTITCRASQSILTYLNWYQQKPGKAPKLVIYYVNNLPSGVPSRFSGSGSGTDFTLTISSLQPEDFATYYCQQSYNSPLTFGGGTKVEIK
B2: 366_C05 (antibody, V domains shown)
VH: B1 VH with S31D, N35H, A49S, G50S, K58T, S59G, N101T, A106H
VL: B1 VL with L30I, T31S, Y50A, V51A, N52T, N53S, L54R, P55A, N93D
B3: 369_D06 (antibody, V domains shown)
VH: B1 VH with G33S, A49S, K58T, S59G, A99S, N101T, A106H
VL: B1 VL with V47L, Y50A, V51A, N52T, N53S, L54R, P55A, N93E, S94T
B4: 375_H01 (antibody, V domains shown)
VH: B1 VH with D30S, S31D, G33S, G55S, K58T, A106H
VL: B1 VL with V47L, Y50A, V51A, N52T, N53S, L54R, P55H, N93S, S94N
B5: 366_E03 (antibody, V domains shown)
VH: B1 VH with A49S, G50N, A99S, N101T, A106H
VL: B1 VL with Y50A, V51A, N52T, N53S, L54R, P55H, N93S, S94N
B6: 369_F04 (antibody, V domains shown)
VH: B1 VH with D30S, A49S, K58T, A99S, N101T, A106H
VL: DIQMTQSPSSLSASVGDRVTITCRASQSIISYVNWYQQKPGKAPKLLIYAATSRHSGVPSRFSGSGSGTDFTLTISSLQPEDFATYYCQQSYDNPLTFGGGTKVEIK
B7: 365_F10 (antibody, V domains shown)
VH: B1 VH with S31D, N35H, A49S, K58T, N101T, A106H
VL: B6 VL with I30V, S31T, H55A, D93E, N94L
B8: 376_G01 (antibody, V domains shown)
VH: B1 VH with S31D, G33S, A49S, G55S, A99S, N101T, A106H
VL: B6 VL with I30L, L47V, A51V, H55A, D93E, N94L
B9: 376_G02 (antibody, V domains shown)
VH: B1 VH with D30S, S31D, A49S, K58T
VL: B6 VL with I30S, S31R, V33L, L47V, R54L, H55A
B10: 369_E04 (antibody, V domains shown)
VH: B1 VH with D30S, S31D, G33S, A49S, G55S, A99S, N101T, A106H
VL: B6 VL with I30L, L47V, H55A, D93S, N94L
B11: 366_B09 (antibody, V domains shown)
VH: B1 VH with D30S, S31D, N35H, A49S, G50S, G55S, N101T, A106H
VL: B6 VL with I30L, S31T, V33L, L47V, N94S
B12: 365_D08 (antibody, V domains shown)
VH: B1 VH with G33S, N35H, A49S, G50S, K58T, N101T, A106H
VL: B6 VL with S31T, H55A, N94T
B13: 366_C03 (antibody, V domains shown)
VH: B1 VH with A49S, G50N, K58T, S59G, A99S, N101T, A106H
VL: B6 VL with I30L, V33L, L47V, H55A, D93S
B14: 365_H04 (antibody, V domains shown)
VH: B1 VH with D30S, S31D, A49S, G55S, A99S, N101T, A106H
VL: B6 VL with I30L, S31T, L47V, H55A, D93E, N94S
B15: 376_E09 (antibody, V domains shown)
VH: B1 VH with G33S, A49S, G55S, A99S, N101T, A106H
VL: B6 VL with I30L, S31T, V33L, N94T
B16: 365_D04 (antibody, V domains shown)
VH: B1 VH with D30S, S31D, N35H
VL: B6 VL with I30S, V33L, L47V, A51V, H55A, N94L
B17: 374_G02 (antibody, V domains shown)
VH: B1 VH with G33S, A49S, G55S, K58T, A99S, N101T, A106H
VL: B6 VL with I30L, S31T, V33L, T52S, R54L, H55Q, N94T
B18: 365_E03 (antibody, V domains shown)
VH: B1 VH with G33S, A49S, G50N, K58T, S59G, A99S, N101T, A106H
VL: B6 VL with I30L, S31T, R54L, Y92D, D93E, N94R
B19: 367_C06 (antibody, V domains shown)
VH: B1 VH with G33S, N35H, G50S, N101T, A106H
VL: B6 VL with I30L, S31T, V33L, L47V, R54L, N94T
B20: 374_B11 (antibody, V domains shown)
VH: B1 VH with D30S, G33S, A49S, G55S, A99S, N101T, A106H
VL: B6 VL with I30L, S31T, L47V, H55A, N94L
B21: 369_A01 (antibody, V domains shown)
VH: B1 VH with G33S, A49S, G55S, S59G, A99S, N101T, A106H
VL: B6 VL with I30L, S31T, L47V, R54L, H55A, D93E, N94L
B22: 373_E08 (antibody, V domains shown)
VH: B1 VH with A49S, G55S, K58T, A99S, N101T, A106H
VL: B6 VL with I30V, A51V, H55A, D93E, N94S
B23: 371_B05 (antibody, V domains shown)
VH: B1 VH with D30S, G33S, A49S, G55S, K58T, A99S, N101T, A106H
VL: B1 VL with Y50A, V51A, N52T, N53S, P55A, Y92D, N93E, S94T
B24: 366_E07 (antibody, V domains shown)
VH: B1 VH with N35H, K58T, N101T
VL: B6 VL with I30L, S31T, V33L, L47V, Y92D, D93N, N94S
B25: 373_D09 (antibody, V domains shown)
VH: B1 VH with G33S, A49S, G55S, K58T, A99S, N101T, A106H
VL: B6 VL with I30L, S31T, V33L, L47V, D93E
B26: 375_F12 (antibody, V domains shown)
VH: B1 VH with N35H, G50S, K58T
VL: B6 VL with I30L, S31T, V33L, L47V, H55A, Y92D, D93E, N94L
B27: 373_H12 (antibody, V domains shown)
VH: B1 VH with D30S, S31D, G33S, A49S, G55S, S59G, A99S, N101T, A106H
VL: B6 VL with I30L, S31T, V33L, H55A, D93N, N94S
B28: 367_F08 (antibody, V domains shown)
VH: B1 VH with D30S, N35H, A49S, G50S, G55S, K58T, N101T, A106H
VL: B6 VL with I30L, L47V, H55A, Y92N, D93E, N94L
B29: 367_E10 (antibody, V domains shown)
VH: B1 VH with D30S, N35H, A49S, G50S, K58T, S59G, N101T, A106H
VL: B6 VL with I30L, H55A, D93E, N94L
B30: 375_A11 (antibody, V domains shown)
VH: B1 VH with D30S, S31D, N35H, A49S, G50S, G55S
VL: B6 VL with I30V, V33L, A50Y, A51V, S53N, R54L, H55A
B31: 366_G02 (antibody, V domains shown)
VH: B1 VH with N35H, A49S, G50S, K58T, N101T, A106H
VL: B6 VL with I30L, S31T, V33L, Y92D
B32: 366_H01 (antibody, V domains shown)
VH: B1 VH with S31D, G33S, N35H, G50N, K58T, N101T, A106H
VL: B6 VL with I30L, S31T, V33L, L47V, A51T, D93E, N94S
B33: 375_B10 (antibody, V domains shown)
VH: B1 VH with G33S, A49S, G55S, K58T, A99S, N101T, A106H
VL: B6 VL with I30L, V33L, N94L
B34: 376_C07 (antibody, V domains shown)
VH: B1 VH with D30S, G33S, A49S, G55S, S59G, A99S, N101T, A106H
VL: B6 VL with I30L, N94L
B35: 367_C12 (antibody, V domains shown)
VH: B1 VH with D30S, N35H, A49S, K58T, N101T, A106H
VL: B6 VL with I30L, A51T, D93E, N94S
B36: 371_F12 (antibody, V domains shown)
VH: B1 VH with G33S, A49S, G50N, A99S, N101T, A106H
VL: B6 VL with V33L, H55A, Y92N, D93N, N94L
B37: 367_A11 (antibody, V domains shown)
VH: B1 VH with D30S, N35H, A49S, K58T, A99S, N101T, A106H
VL: B6 VL with I30L, L47V, A51T, R54L, H55A, D93N, N94S
B38: 365_E08 (antibody, V domains shown)
VH: B1 VH with G33S, A49S, G55S, K58T, A99S, N101T, A106H
VL: B6 VL with L47V, R54L, H55A, N94L
B39: 367_G08 (antibody, V domains shown)
VH: B1 VH with A49S, G50N, S59G, A99S, N101T, A106H
VL: B6 VL with I30L, V33L, H55A, D93E
B40: 376_H08 (antibody, V domains shown)
VH: B1 VH with A49S, G50N, S59G, A99S, N101T, A106H
VL: B6 VL with I30L, S31T, V33L, Y92D, D93S, N94L
B41: 376_G11 (antibody, V domains shown)
VH: B1 VH with D30S, G33S, A49S, G55S, A99S, N101T, A106H
VL: B6 VL with I30V, S31T, L47V, R54L, H55A, D93N, N94L
B42: 372_H03 (antibody, V domains shown)
VH: B1 VH with A49S, G50N, A99S, N101T, A106H
VL: B6 VL with S31T, R54L, H55A, D93N, N94L
B43: 374_E04 (antibody, V domains shown)
VH: B1 VH with D30S, G33S, A49S, G55S, A99S, N101T, A106H
VL: B6 VL with I30L, V33L, A51V, H55A, D93N
B44: 365_D03 (antibody, V domains shown)
VH: B1 VH with S31D, G33S, N35H, G50S, N101T, A106H
VL: B6 VL with I30V, V33L, L47V, H55A, N94S
B45: 365_G06 (antibody, V domains shown)
VH: B1 VH with N35H, K58T, N101T, A106H
VL: B6 VL with I30L, V33L, R54L, H55A, Y92D, D93S, N94T
B46: 365_C06 (antibody, V domains shown)
VH: B1 VH with D30S, S31D, N35H, A49S, K58T
VL: B6 VL with I30S, S31T, A51V, R54L, H55A
B47: 373_F02 (antibody, V domains shown)
VH: B1 VH with G33S, A49S, G55S, A99S, N101T, A106H
VL: B6 VL with I30L, S31T, V33L, H55A, N94T
B48: 365_B12 (antibody, V domains shown)
VH: B1 VH with D30S, S31D, N35H, A49S, K58T, N101T, A106H
VL: B6 VL with I30S, S31T, A51V, R54L

target: human Fc (human); test: ELISA, negative control

Row | Binder | optical density [OD]
1 | B1 | 0.177
2 | B2 | 0.269
3 | B3 | 0.324
4 | B4 | 0.216
5 | B5 | 0.384
6 | B6 | 0.369
7 | B7 | 0.386
8 | B8 | 0.227
9 | B9 | 0.285
10 | B10 | 0.387
11 | B11 | 0.283
12 | B12 | 0.35
13 | B13 | 0.274
14 | B14 | 0.371
15 | B15 | 0.246
16 | B16 | 0.316
17 | B17 | 0.175
18 | B18 | 0.314
19 | B19 | 0.29
20 | B20 | 0.17
21 | B21 | 0.456
22 | B22 | 0.165
23 | B23 | 0.246
24 | B24 | 0.262

Row | Binder | optical density [OD]
25 | B25 | 0.16
26 | B26 | 0.175
27 | B27 | 0.162
28 | B28 | 0.299
29 | B29 | 0.271
30 | B30 | 0.176
31 | B31 | 0.357
32 | B32 | 0.384
33 | B33 | 0.17
34 | B34 | 0.265
35 | B35 | 0.31
36 | B36 | 0.413
37 | B37 | 0.3
38 | B38 | 0.298
39 | B39 | 0.33
40 | B40 | 0.274
41 | B41 | 0.285
42 | B42 | 0.437
43 | B43 | 0.169
44 | B44 | 0.346
45 | B45 | 0.32
46 | B46 | 0.318
47 | B47 | 0.175
48 | B48 | 0.307
